The data set in a line: yeast display, Sf9 membrane polyspecificity reagent, FACS + sequencing; frameworks hold sequencing errors. The procedure, abridged: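 Using colony PCR, genes from sorted yeast display clones were amplified, then sequenced on MiSeq at 2 × 250 and filtered by CDR length. The clones had been stained with 10% biotinylated, detergent-solubilized Sf9 membrane reagent for 1 hour at 4 °C and sorted by FACS into low and high (top ~1%) gates on anti-HA and streptavidin fluorescence. Polyreactivity labels come from the gate of origin.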
Regarding “QVQLVESGGGLVQAGGSLRLSCAASGFIFGRYAMGWYRQAPGKERELVAAISSGDDTDYADSVKGRFTISRDNAKNTVYLQMNSLKPEDTAVSYCARSRFWSPVIYRRTIEFDSWGQGTQVTVSS”, the “polyreactivity (PSR sort gate)” value was “low polyreactivity”.
As for “QVQLVESGGGLVQAGGSLRLSCAASGFIFGRYAMGWYRQSPGKERELVAVISKRGDNTYYADSVKGRFTISRDNAKNTVYLQMNSLKPEDTAVYYCNVKRYGGRSDYWGQGTQVTVSS”, the “polyreactivity (PSR sort gate)” value is on record as “high polyreactivity”.
Then “QVQLVESGGGLVQAGGSLRLSCAASGFIFGRYTMGWYRQAPGKERELVAAITYSGNTYYADSVKGRFTISRDKAKTTVYVQMNSLKPEDTALYYCNAYGANFRAFRNAYKYWGQGTQVTVSS”, with “high polyreactivity”; and “QVQLVESGGGLVQAGGSLRLSCAASGFIFGSYALGWDRQAPGKEWELVAAINYDGGSTYYADSVKGRFTISRDHAKNTVYLQMNSLKPEDTAVYYCAADLYYTHMDYWGQGTQVTVSS”, with “low polyreactivity”.
On to “QVQLVESGGGLVQAGGSLRLSCAASGFIFGSYAMGWYRQAPGKERELVAAISTGGGSTYYADSVKGRFTISRDNAKNTVYLQMNSLKPEDTAVYYCATDYRVTVWHPYQWYIYGYWGQGTQVTVSS”, for which the “polyreactivity (PSR sort gate)” value is “low polyreactivity”.
Then “QVQLVESGGGLVQAGGSLRLSCAASGFIFGSYTMGWYRQAPGKERELVAAISWSSGCSTYYADSVKGRFTISRDNAKNTVYLQMNSLKPEDTAVYYCAARHRGAGRNDFYYWGQGTQVTVSS”, with “high polyreactivity”.
Then “QVQLVESGGGLVQAGGSLRLSCAASGFIFGTYAMGWYRQAPGNERELVAAISVGGGSTYYADSVKGRFTISRDNAKNTVYLQMNSLKPEDTAVYYCAAVQLYQKHQITYVAHEYWGQGTQVTVSS”, with “low polyreactivity”; and “QVQLVESGGGLVQAGGSLRLSCAASGFIFGVNAMGWYRQAPGKEPELVAAINGGASTYYADSVKGRFTISRDNAKNTVYLQMNSLKPEDTAVYYCAAVFYDYRGRLYPNFGLYYYWGQGTQVTVSS”, with “high polyreactivity”; and “QVQLVESGGGLVQAGGSLRLSCAASGFIFGVNAMVWYRQAPGKERELVAAITRNGGSTYYADSVKGRFTISRDNAKNTVYLQMKSLKPEDTAVYYCAKYVRRAPSTFDVDYWGQGTQVTVSS”, with “high polyreactivity”.
Then “QVQLVESGGGLVQAGGSLRLSCAASGFIFGVYAMGWYRQAPGKERELVAAISRSGGSTYYADSVKGRFTISRDNAKNTVYLQMNSLKPEDTAVYYCATQVSWYGKGYYYWGQGTQVTVSS”, with “high polyreactivity”; and “QVQLVESGGGLVQAGGSLRLSCAASGFIFGWNAMGWYREAPGKERELVAALTRTGSTYYADSVKGRFTISRDNAKNTVYLQMNSLKPEDTAVYYCAASYGSRSTRTEGYWGQGTQVTVSS”, with “low polyreactivity”.
In the case of “QVQLVESGGGLVQAGGSLRLSCAASGFIFGYNAMGGYRLAPGKERELVAAISSYGGSPYYADSVKGRFTISRDNAKNTVYLQMNTLKPEDTAVYYWAARPVALRKYDYWGQGTQLTVSS”, the “polyreactivity (PSR sort gate)” value is reported as “low polyreactivity”.
Next, “QVQLVESGGGLVQAGGSLRLSCAASGFIFGYNAMGWYRQAAGKERELVAAISYSGGGTYYADSVKGRFTISRDNAKNTVYLQMNSLKPEDTAVYYCAARSWGRRSYDYWGQGTQVTVSS”: “high polyreactivity”.
Then “QVQLVESGGGLVQAGGSLRLSCAASGFIFGYNAMGWYRQAPGIERELVAAITASGGSTYYADSVKGRFTISLDNAKNTVYLQLNSLIPEDTAVYYCATVLRKNGERGNRLYYWGQGTQVTVSS”, with “high polyreactivity”.
Then “QVQLVESGGGLVQAGGSLRLSCAASGFIFGYNAMGWYRQAPGKERELVASITINDGSTYYADSVKGRFTISRDNAKNTVYLQMNCLKPEDTAVYYCAAGGWYSLDILPYRYDYWGQGTQVTVSS”, with “low polyreactivity”; and “QVQLVESGGGLVQAGGSLRLSCAASGFIFGYNGMGWYRQAPGKERELVAGITYSDGSTYYADSVKGRFTISRDNAKNTVYLQMNSLKPEDTAVYYCAVEVGYTDSPYSYDYWGQGTQVTVSS”, with “low polyreactivity”.
Turning to “QVQLVESGGGLVQAGGSLRLSCAASGFIFGYYAMGWYRQAPGKERELVAAINRSGSTYYADSVKGPFTISRDNAKNTVYLQMNSLKPEDTAVYYCKLRHYVGLSKGDYWGQGTQVTVSS”, the “polyreactivity (PSR sort gate)” value is “high polyreactivity”.
In the case of “QVQLVESGGGLVQAGGSLRLSCAASGFIFGYYAMGWYRQAPGKERELVAAISWSGGSTYYADSVKGRFTISRDKAKNTVYLQMNSLKPEDTAVYYCATASPSTRYGRLGDYWGQGTQVTVSS”, the “polyreactivity (PSR sort gate)” value is “low polyreactivity”.
Then “QVQLVESGGGLVQAGGSLRLSCAASGFIFGYYAMGWYRQAPGKERELVAAISWSGGSTYYADSVKGRFTISRDNAKNTVYLQMNSLKPEDTAVYYCATASPSTRYGRLGDYWGQGTQVTVSS”, with “low polyreactivity”.
Then “QVQLVESGGGLVQAGGSLRLSCAASGFIFGYYAMGWYRQAPGKERELVAAITGGGSTYYADSVKGRFTISRDNAKNTVYLQMNSLKPEDTAVYDCNADYGDGEYDYWGQGTQVTVSS”, with “low polyreactivity”; and “QVQLVESGGGLVQAGGSLRLSCAASGFIFHDNAMGWYRQAPGKERELVAAIRSTGSTNYADSVKGRFTISRDNAKNTVYLQMNSLKPEDTAVYYCNAGKYQSDTPSLDPTEYPAFYYWGQGTQVTVSS”, with “low polyreactivity”; and “QVQLVESGGGLVQAGGSLRLSCAASGFIFHLYGMGWYRQAPGKERELVAAISSGGRTYYADSVKGRFTISRDNAKNTVYLQMNSLKPEDTAVYYCAVYVAYLYSYYYWGQGTQVTVSS”, with “low polyreactivity”.
As for “QVQLVESGGGLVQAGGSLRLSCAASGFIFHNYVMGWYRQAPGKERELVAVISGSGGSTYYADSVKGRFTISRDNAKNTVYLQMNSLKPEDTAVYYCAADNVYGYDYWGQGTQVTVSS”, the “polyreactivity (PSR sort gate)” value is reported as “low polyreactivity”.
Next, “QVQLVESGGGLVQAGGSLRLSCAASGFIFHRYAMGWYRQAPGKERELVAAISSSGGSTYYADSVKGRFTISRDNAKNTVYLQMNSLKPEDTAVYYCAAEEEEFIYDYWGQGTQVTVSS”: “high polyreactivity”; “QVQLVESGGGLVQAGGSLRLSCAASGFIFHSYAMRWYRQAPGKERELVAAITHSGGRTYYADCVKGRFTISRDNAKNTVYLQMNSLKPEDTAVYYCAAVTRRHEYDYWGQGSQVTVSS”: “high polyreactivity”; “QVQLVESGGGLVQAGGSLRLSCAASGFIFHTYAMGWYRQAPGKEREFVAAISGGTSSTYYADSVKGRFTISRDNAKNTVYLQMNSLKPEDTAVYYCAARSRRGGYPRYYYWGQGTQVTVSS”: “high polyreactivity”.
Then “QVQLVESGGGLVQAGGSLRLSCAASGFIFHWNAMGWYRQAPGKERELVAAITWRGTNTYYADSVKGRFTISRDNAKNTVYLQMNSLKPEDTAVYYCAGTRNPWPTSFDYWGQGTQVTVSS”, with “low polyreactivity”.
Take “QVQLVESGGGLVQAGGSLRLSCAASGFIFIHNAMGWYRQAPGKERELVAAISYSGGSTYYADSVKGRFTISRDNAKNTVYLQMNSLKPEDTAVYYCNRVQYYRADRMDYWGQGTQVTVSS”: the “polyreactivity (PSR sort gate)” value is given as “low polyreactivity”.
With “QVQLVESGGGLVQAGGSLRLSCAASGFIFIQYAMGWYRQAPGKERELVAAISRSGGSTSYADSVKGRFTISRDNAKNTVYLQMNSLKPEDTAVYYCNRYYGSSGHGRPNEKYGYWGQGTQVTVSS”, the “polyreactivity (PSR sort gate)” value was “low polyreactivity”.
Then “QVQLVESGGGLVQAGGSLRLSCAASGFIFITVNAMGWYRQAPGKEREFVAAITRSGTGTYYADSVKGRFTISRDNAKNTVYLQMNSLKPEDTAVYYCAADATSTGAYDYWGQGTQVTVSS”, with “low polyreactivity”.

These data come from the nanobody polyreactivity screen of Harvey et al. (2022).
